Numbering of substitutions follows the chain as printed. In names and notes the source's numbering stands.
What was measured:
SEC = target: the molecule itself; experiment: SEC
[1] = target: the molecule itself; experiment: SEC with right-angle light scattering

B1: full-length wild-type human PUS3 protein (pseudouridine synthase 3) (enzyme, UniProt Q9BZE2 1-481, looked up)
chain: MAYNDTDRNQTEKLLKRVRELEQEVQRLKKEQAKNKEDSNIRENSAGAGKTKRAFDFSAHGRRHVALRIAYMGWGYQGFASQENTNNTIEEKLFEALTKTRLVESRQTSNYHRCGRTDKGVSAFGQVISLDLRSQFPRGRDSEDFNVKEEANAAAEEIRYTHILNRVLPPDIRILAWAPVEPSFSARFSCLERTYRYFFPRADLDIVTMDYAAQKYVGTHDFRNLCKMDVANGVINFQRTILSAQVQLVGQSPGEGRWQEPFQLCQFEVTGQAFLYHQVRCMMAILFLIGQGMEKPEIIDELLNIEKNPQKPQYSMAVEFPLVLYDCKFENVKWIYDQEAQEFNITHLQQLWANHAVKTHMLYSMLQGLDTVPVPCGIGPKMDGMTEWGNVKPSVIKQTSAFVEGVKMRTYKPLMDRPKCQGLESRIQHFVRRGRIEHPHLFHEEETKAKRDCNDTLEEENTNLETPTKRVCVDTEIKSII
SEC
  stoichiometry N: 2

B2: full-length human PUS3 Y71C mutant (enzyme, UniProt Q9BZE2 1-481, looked up)
chain: B1 chain with Y71C
[1]
  stoichiometry N: 2

B3: full-length human PUS3 D118A mutant (catalytic site) (enzyme, UniProt Q9BZE2 1-481, looked up)
chain: B1 chain with D118A
SEC
  binding result: binds

Reference: PMC10092196 (Human Mutation, 2022)
